For three molecules, OD492 nm results are on record in US20060121580A1.

The target in the assay is inactivated SARS-CoV preparation (Frankfurt 1 strain), gamma-irradiated.

B1: single-chain phage antibody SC03-012 (scFv)
scFv: AMAQVQLVQSGAEVKKPGASVKVSCKASGYTFTSYGISWVRQAPGQGLEWMGWISAYNGNTNYAQKLQGRVTMTTDTSTSTAYMELSSLRSDDTAVYYCARMFRKSSFDSWGQGTLVTVSRGGGGSGGGGSGGGGSSELTQDPAVSVALGQTVRITCQGDSLRSYYASWYQQKPGQAPVLVIYGKNNRPSGIPDRFSGSSSGNTASLTITGAQAEDEADYYCNSRDSSGNHVVFGGGTKLTVLGAAA
Consider B1, for which the OD492 nm amounted to 0.495 OD492 nm.

B2: single-chain phage antibody SC03-006 (scFv)
scFv: SMAEVQLVESGGGLVQPGGSLRLSCAASGFTFSGYPMHWVRQAPGKGLEWVAVISYDGSNKYYADSVKGRFTISRDNSKNTLYLQMNSLRAEDTAVYYCAKDGSPRTPSFDYWGQGTLVTVLEGTGGSGGTGSGTGTSELDIQMTQSPHSLSASVGDRVTITCRASQGISNYLAWYQQKPGKVPKLLIYAASTLQSGVPSRFSGSGSGTDFTLTISSLQPEDVGVYYCQQRFRTPVTFGQGTKLEIKRAAA
Molecule B2 had an OD492 nm of 1.06 OD492 nm.

B3: single-chain phage antibody SC03-015 (scFv)
scFv: AMAEVQLVESGGGVVRPGGSLRLSCAASGFTFDDYGMSWVRQAPGKGLEWVSGINWNGGSTGYADSVKGRFTISRDNAKNSLYLQMNSLRAEDTAVYYCARGLSLRPWGQGTLVTVSRGGGGSGGGGSGGGGSSELTQDPAVSVALGQTVRITCQGDSLRSYYASWYQQKPGQAPVLVIYGKNNRPSGIPDRFSGSSSGNTASLTITGAQAEDEADYYCNSRDSSGNHVVFGGGTKLTVLGAAA
Consider B3, for which the OD492 nm amounted to 0.796 OD492 nm.
